Article PMC10680758

Target: T1, eIF4G (unlabeled) (Saccharomyces cerevisiae, UniProt P39935 1-952)
T1 sequence: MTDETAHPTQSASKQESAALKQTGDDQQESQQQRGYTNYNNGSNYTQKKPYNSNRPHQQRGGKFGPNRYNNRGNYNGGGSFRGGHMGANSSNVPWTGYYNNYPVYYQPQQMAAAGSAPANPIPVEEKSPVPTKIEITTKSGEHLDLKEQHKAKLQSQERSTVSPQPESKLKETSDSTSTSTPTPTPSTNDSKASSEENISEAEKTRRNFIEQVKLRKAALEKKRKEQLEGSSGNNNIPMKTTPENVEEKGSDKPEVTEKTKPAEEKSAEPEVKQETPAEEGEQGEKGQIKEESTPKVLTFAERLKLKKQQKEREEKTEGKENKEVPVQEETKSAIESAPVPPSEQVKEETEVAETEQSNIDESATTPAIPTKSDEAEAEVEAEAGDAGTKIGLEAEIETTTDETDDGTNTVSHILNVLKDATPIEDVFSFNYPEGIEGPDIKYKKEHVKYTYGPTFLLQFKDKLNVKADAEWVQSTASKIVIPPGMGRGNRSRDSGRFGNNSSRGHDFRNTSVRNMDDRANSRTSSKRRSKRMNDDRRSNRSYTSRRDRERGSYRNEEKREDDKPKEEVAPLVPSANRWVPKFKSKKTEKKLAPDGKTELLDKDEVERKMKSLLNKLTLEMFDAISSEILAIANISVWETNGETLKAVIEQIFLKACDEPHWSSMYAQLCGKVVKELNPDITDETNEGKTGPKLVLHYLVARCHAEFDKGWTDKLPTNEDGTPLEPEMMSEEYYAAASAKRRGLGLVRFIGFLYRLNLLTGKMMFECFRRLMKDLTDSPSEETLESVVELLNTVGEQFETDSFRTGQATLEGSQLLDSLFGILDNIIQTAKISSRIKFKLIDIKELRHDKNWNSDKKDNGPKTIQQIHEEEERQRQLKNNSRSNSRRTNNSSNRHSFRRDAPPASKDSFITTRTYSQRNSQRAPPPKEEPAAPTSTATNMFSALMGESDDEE
Experiment: fluorescence anisotropy

B1: rpl41a 51mer-FAM (ssRNA)
RNA: GGAGACCACAUCGAUUCAAUCGAAAUGAGAGCCAAGUGGAGAAAGAAGAGA
Question: Does B1 bind?
Answer: binds
